{"source": "paper PMC10397247", "assay_in_all_cases": "two-hybrid library CCmax;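 also: natural log of median RNA to DNA barcode read ratio; higher means stronger binding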", "key": {"4H1193-AA": {"molecular_target": "T1, 4H1193-AA", "T1 chain": "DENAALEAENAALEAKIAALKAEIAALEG"}, "4H4038-AA": {"molecular_target": "T2, 4H4038-AA", "T2 chain": "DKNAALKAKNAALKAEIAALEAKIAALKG", "conditions": "mean of both orientations"}, "4H_APH": {"molecular_target": "T3, 4H_APH", "T3 chain": "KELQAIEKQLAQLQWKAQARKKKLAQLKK", "conditions": "mean of both orientations"}, "4H3049-AA": {"molecular_target": "T4, 4H3049-AA", "T4 chain": "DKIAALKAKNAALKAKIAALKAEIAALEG", "conditions": "mean of both orientations"}, "4H134-AA": {"molecular_target": "T5, 4H134-AA", "T5 chain": "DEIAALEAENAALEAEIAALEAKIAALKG", "conditions": "mean of both orientations"}, "4H1385-AA": {"molecular_target": "T6, 4H1385-AA", "T6 chain": "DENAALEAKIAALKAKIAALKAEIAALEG", "conditions": "mean of both orientations"}, "O13-AA": {"molecular_target": "T7, O13-AA", "T7 chain": "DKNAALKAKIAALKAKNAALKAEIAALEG", "conditions": "mean of both orientations"}, "4H2736-AA": {"molecular_target": "T8, 4H2736-AA", "T8 chain": "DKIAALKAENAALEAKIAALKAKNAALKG", "conditions": "mean of both orientations"}, "4H337-AA": {"molecular_target": "T9, 4H337-AA", "T9 chain": "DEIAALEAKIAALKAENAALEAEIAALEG", "conditions": "mean of both orientations"}, "O11-AA": {"molecular_target": "T10, O11-AA", "T10 chain": "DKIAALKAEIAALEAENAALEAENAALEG", "conditions": "mean of both orientations"}, "4H2705-AA": {"molecular_target": "T11, 4H2705-AA", "T11 chain": "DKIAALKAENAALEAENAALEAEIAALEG", "conditions": "mean of both orientations"}, "4H2622-AA": {"molecular_target": "T12, 4H2622-AA", "T12 chain": "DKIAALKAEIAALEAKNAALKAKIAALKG", "conditions": "mean of both orientations"}, "O14-AA": {"molecular_target": "T13, O14-AA", "T13 chain": "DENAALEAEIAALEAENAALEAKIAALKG", "conditions": "mean of both orientations"}, "4H451-AA": {"molecular_target": "T14, 4H451-AA", "T14 chain": "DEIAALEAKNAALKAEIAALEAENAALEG", "conditions": "mean of both orientations"}, "4H384-AA": {"molecular_target": "T15, 4H384-AA", "T15 chain": "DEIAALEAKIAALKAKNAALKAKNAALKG", "conditions": "mean of both orientations"}, "4H3625-AA": {"molecular_target": "T16, 4H3625-AA", "T16 chain": "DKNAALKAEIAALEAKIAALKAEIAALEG", "conditions": "mean of both orientations"}, "4H2888-AA": {"molecular_target": "T17, 4H2888-AA", "T17 chain": "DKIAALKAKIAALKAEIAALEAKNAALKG", "conditions": "mean of both orientations"}, "4H3587-AA": {"molecular_target": "T18, 4H3587-AA", "T18 chain": "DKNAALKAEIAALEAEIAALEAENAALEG", "conditions": "mean of both orientations"}, "4H1392-AA": {"molecular_target": "T19, 4H1392-AA", "T19 chain": "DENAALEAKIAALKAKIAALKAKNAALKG", "conditions": "mean of both orientations"}, "4H_BCR": {"molecular_target": "T20, 4H_BCR", "T20 chain": "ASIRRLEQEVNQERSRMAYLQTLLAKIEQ", "conditions": "mean of both orientations"}, "4H1350-AA": {"molecular_target": "T21, 4H1350-AA", "T21 chain": "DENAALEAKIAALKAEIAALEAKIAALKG", "conditions": "mean of both orientations"}, "GCN2_T": {"molecular_target": "GCN2_T", "conditions": "mean of both orientations"}, "4H3590-AA": {"molecular_target": "T22, 4H3590-AA", "T22 chain": "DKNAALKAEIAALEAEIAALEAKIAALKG", "conditions": "mean of both orientations"}, "4H510-AA": {"molecular_target": "T23, 4H510-AA", "T23 chain": "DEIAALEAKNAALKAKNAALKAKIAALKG", "conditions": "mean of both orientations"}, "4H3905-AA": {"molecular_target": "T24, 4H3905-AA", "T24 chain": "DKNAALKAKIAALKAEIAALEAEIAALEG", "conditions": "mean of both orientations"}, "4H43-AA": {"molecular_target": "T25, 4H43-AA", "T25 chain": "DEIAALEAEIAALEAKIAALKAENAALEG", "conditions": "mean of both orientations"}, "4H_GCN4": {"molecular_target": "4H_GCN4", "sequence (chain, as listed by the source)": "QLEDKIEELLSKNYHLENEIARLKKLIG"}, "4H891-AA": {"molecular_target": "T26, 4H891-AA", "T26 chain": "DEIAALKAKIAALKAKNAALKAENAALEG", "conditions": "mean of both orientations"}, "P5-AA-1HAA-R": {"molecular_target": "T27, P5-AA-1HAA-R", "T27 chain": "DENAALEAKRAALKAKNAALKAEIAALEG"}, "4H458-AA": {"molecular_target": "T28, 4H458-AA", "T28 chain": "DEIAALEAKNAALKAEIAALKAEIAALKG", "conditions": "mean of both orientations"}, "4H94-AA": {"molecular_target": "T29, 4H94-AA", "T29 chain": "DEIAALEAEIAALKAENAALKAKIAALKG", "conditions": "mean of both orientations"}, "4H3865-AA": {"molecular_target": "T30, 4H3865-AA", "T30 chain": "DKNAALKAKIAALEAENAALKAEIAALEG"}, "4H982-AA": {"molecular_target": "T31, 4H982-AA", "T31 chain": "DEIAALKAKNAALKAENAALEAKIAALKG", "conditions": "mean of both orientations"}, "4H797-AA": {"molecular_target": "T32, 4H797-AA", "T32 chain": "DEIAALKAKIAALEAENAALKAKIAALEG", "conditions": "mean of both orientations"}, "4H536-AA": {"molecular_target": "T33, 4H536-AA", "T33 chain": "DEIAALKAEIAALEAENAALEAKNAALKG", "conditions": "mean of both orientations"}, "4H930-AA": {"molecular_target": "T34, 4H930-AA", "T34 chain": "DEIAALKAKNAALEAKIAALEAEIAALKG", "conditions": "mean of both orientations"}, "4H909-AA": {"molecular_target": "T35, 4H909-AA", "T35 chain": "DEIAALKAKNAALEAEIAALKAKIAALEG", "conditions": "mean of both orientations"}, "4H710-AA": {"molecular_target": "T36, 4H710-AA", "T36 chain": "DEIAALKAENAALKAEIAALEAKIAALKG", "conditions": "mean of both orientations"}, "4H570-AA": {"molecular_target": "T37, 4H570-AA", "T37 chain": "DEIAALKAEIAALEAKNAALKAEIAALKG", "conditions": "mean of both orientations"}, "4H697-AA": {"molecular_target": "T38, 4H697-AA", "T38 chain": "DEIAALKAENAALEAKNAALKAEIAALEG"}, "4H485-AA": {"molecular_target": "T39, 4H485-AA", "T39 chain": "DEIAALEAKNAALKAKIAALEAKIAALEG", "conditions": "mean of both orientations"}, "4H850-AA": {"molecular_target": "T40, 4H850-AA", "T40 chain": "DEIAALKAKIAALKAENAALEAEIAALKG", "conditions": "mean of both orientations"}, "4H629-AA": {"molecular_target": "T41, 4H629-AA", "T41 chain": "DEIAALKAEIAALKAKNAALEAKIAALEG", "conditions": "mean of both orientations"}, "4H745-AA": {"molecular_target": "T42, 4H745-AA", "T42 chain": "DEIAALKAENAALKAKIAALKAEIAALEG", "conditions": "mean of both orientations"}, "Core_NIIN-es_KEKK": {"molecular_target": "T43, Core_NIIN-es_KEKK", "T43 chain": "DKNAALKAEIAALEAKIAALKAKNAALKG", "conditions": "mean of both orientations"}}, "data": [{"binder": "DENAALEAENAALEAKIAALKAEIAALEG", "note": "[4H1193-AA]", "values": [{"measurement": "interaction score", "setting": "4H1193-AA", "result": -1.08}, {"measurement": "interaction score", "setting": "4H4038-AA", "result": 2.18}, {"measurement": "interaction score", "setting": "4H_APH", "result": -1.85}, {"measurement": "interaction score", "setting": "4H3049-AA", "result": 1.47}, {"measurement": "interaction score", "setting": "4H134-AA", "result": 1.42}, {"measurement": "interaction score", "setting": "4H1385-AA", "result": -0.776}, {"measurement": "interaction score", "setting": "O13-AA", "result": -0.387}, {"measurement": "interaction score", "setting": "4H2736-AA", "result": -0.353}, {"measurement": "interaction score", "setting": "4H337-AA", "result": -1.69}, {"measurement": "interaction score", "setting": "O11-AA", "result": -1.11}, {"measurement": "interaction score", "setting": "4H2705-AA", "result": -1.54}, {"measurement": "interaction score", "setting": "4H2622-AA", "result": 1.87}, {"measurement": "interaction score", "setting": "O14-AA", "result": -1.3}, {"measurement": "interaction score", "setting": "4H451-AA", "result": -1.06}, {"measurement": "interaction score", "setting": "4H384-AA", "result": -1.19}, {"measurement": "interaction score", "setting": "4H3625-AA", "result": 0.75}, {"measurement": "interaction score", "setting": "4H2888-AA", "result": 0.331}, {"measurement": "interaction score", "setting": "4H3587-AA", "result": 0.0373}, {"measurement": "interaction score", "setting": "4H1392-AA", "result": -0.855}, {"measurement": "interaction score", "setting": "4H_BCR", "result": -1.78}, {"measurement": "interaction score", "setting": "4H1350-AA", "result": 1.11}, {"measurement": "interaction score", "setting": "GCN2_T", "result": -1.62}, {"measurement": "interaction score", "setting": "4H3590-AA", "result": 1.11}, {"measurement": "interaction score", "setting": "4H510-AA", "result": -0.152}, {"measurement": "interaction score", "setting": "4H3905-AA", "result": -0.00198}, {"measurement": "interaction score", "setting": "4H43-AA", "result": -0.557}, {"measurement": "interaction score", "setting": "4H_GCN4", "result": -1.64}]}, {"binder": "DKNAALKAKIAALEAENAALKAEIAALEG", "note": "[4H3865-AA]", "values": [{"measurement": "interaction score", "setting": "4H891-AA", "result": -1.81}, {"measurement": "interaction score", "setting": "P5-AA-1HAA-R", "result": -0.395}, {"measurement": "interaction score", "setting": "4H458-AA", "result": -1.15}, {"measurement": "interaction score", "setting": "4H94-AA", "result": 1.56}, {"measurement": "interaction score", "setting": "4H3865-AA", "result": 0.444}, {"measurement": "interaction score", "setting": "4H982-AA", "result": -0.79}, {"measurement": "interaction score", "setting": "4H797-AA", "result": 1.12}, {"measurement": "interaction score", "setting": "4H536-AA", "result": -0.909}, {"measurement": "interaction score", "setting": "4H930-AA", "result": -1.43}, {"measurement": "interaction score", "setting": "4H909-AA", "result": -1.04}, {"measurement": "interaction score", "setting": "4H710-AA", "result": -1.84}, {"measurement": "interaction score", "setting": "4H570-AA", "result": 0.484}, {"measurement": "interaction score", "setting": "4H697-AA", "result": -1.81}, {"measurement": "interaction score", "setting": "4H485-AA", "result": -1.27}, {"measurement": "interaction score", "setting": "4H850-AA", "result": 1.18}, {"measurement": "interaction score", "setting": "4H629-AA", "result": -1.62}, {"measurement": "interaction score", "setting": "4H745-AA", "result": -0.83}]}, {"binder": "DENAALEAKIAALKAEIAALEAENAALEG", "note": "[Core_NIIN-es_EKEE]", "values": [{"measurement": "interaction score", "setting": "Core_NIIN-es_KEKK", "result": 1.84}]}]}
